Measured values published in article PMC12214486.

Tests used:
[1] = molecular target: T1, DNA polymerase iota catalytic core (UniProt Q9UNA4 26-443); assay: X-ray crystallography
T1 sequence: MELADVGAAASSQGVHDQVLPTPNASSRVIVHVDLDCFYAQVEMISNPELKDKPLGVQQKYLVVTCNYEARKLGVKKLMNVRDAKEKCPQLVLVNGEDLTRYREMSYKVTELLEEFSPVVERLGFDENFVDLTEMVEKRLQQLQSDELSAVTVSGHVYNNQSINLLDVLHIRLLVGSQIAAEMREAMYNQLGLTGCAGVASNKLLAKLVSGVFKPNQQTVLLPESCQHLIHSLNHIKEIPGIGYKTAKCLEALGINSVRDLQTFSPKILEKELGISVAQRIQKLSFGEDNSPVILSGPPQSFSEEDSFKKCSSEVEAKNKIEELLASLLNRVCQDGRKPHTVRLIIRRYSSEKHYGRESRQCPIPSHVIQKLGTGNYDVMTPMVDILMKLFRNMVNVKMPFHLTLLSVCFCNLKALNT

[2] = molecular target: T1, DNA polymerase iota catalytic core; assay: X-ray crystallography; remark: listed apart in the source
[3] = molecular target: T1, DNA polymerase iota catalytic core; assay: X-ray crystallography; remark: listed apart in the source
[4] = molecular target: T1, DNA polymerase iota catalytic core; assay: time-lapse X-ray crystallography

B1: self-annealed 18-mer substrate DNA, template A (dsDNA)
DNA 1: TCAAGGGTCCTAGGACCC
DNA 2: TCAAGGGTCCTAGGACCC
binding result [1]: binds

B2: self-annealed 19-mer product DNA (pre-translocation) (dsDNA)
DNA 1: TCAAGGGTCCTAGGACCCT
DNA 2: TCAAGGGTCCTAGGACCCT
binding result [2]: binds

B3: self-annealed 17-mer product DNA (post-translocation) (dsDNA)
DNA 1: TCAAGGGTCCGGACCCT
DNA 2: TCAAGGGTCCGGACCCT
binding result [3]: binds

B4: product DNA formed in crystallo from 18-mer plus dTTP (dsDNA)
DNA 1: TCAAGGGTCCTAGGACCCT
DNA 2: TCAAGGGTCCTAGGACCCT
binding result [4]: binds
